In patent US9675625B2, “Medicament comprising recombinant antibody against chemokine receptor CCR4” (KYOWA HAKKO KIRIN CO., LTD., priority 2003, dated 2017):
Where “and” joins values, the source holds several entries; their conditions need not be identical. Equal values may be shown once.

What was measured:
CCR4/EL4 cells [1] = experiment: antitumor effect of KM 2760 and IFN-α in combination, CCR4/EL4 cells grafted into tail vein of C57BL/6 mice, liver weight ratio; type: in vivo, C57BL/6 mouse
Procedure: CCR4/EL4 cells were suspended in RPMI 1640 medium (manufactured by Gibco BRL) at a concentration of 5×10^5 cells/mL, and 100 μl of the suspension was grafted into the tail vein of C57BL/6 mice (CLEA Japan Inc., male, 8 weeks old). Further, mice were grouped into A to D, and each of the agents A to D were administered to the mice. Incidentally, the day on which the tumor was grafted was defined as Day 0.
B. Group of administering IFN-α alone: 5×10^4 units of IFN-α (Universal type I interferon, manufactured by PBL Biomedical Laboratories) was intravenously administered per mouse once a day for 5 days from Day 1 to Day 5.
The experiment was conducted with group A consisting of 7 mice and groups B, C and D each consisting of 6 mice. […] The weight of all mice was measured on Day 14. After etherization and exsanguination, mice were brought to euthanasia by dislocation of the cervical spine. The liver was extracted, and the weight of the liver was then measured. A ratio of the liver weight to the weight of each individual (hereinafter referred to as a weight ration of a liver) was calculated by percentage.
The antitumor effect was evaluated by comparing the liver weight ratio (average value of six mice) of untreated healthy mice measured simultaneously and the liver weight ratio of each group increased by metastasis of tumor cells.
Further, the residual amount of tumor cells in the liver in each group was calculated as a T/C value using the following formula. T/C=(average values of a weight ration of a liver of each group−average value of a weight ration of a liver of an untreated mouse)/(average value of a weight ration of a liver of a negative control group−average value of a weight ration of a liver of an untreated mouse) (Formula 4)

CCRF-CEM cells [2] = experiment: antitumor effect of KM 2760 and etoposide in combination, CCRF-CEM cells grafted in nude mouse; type: in vivo, Balb/c nude mouse; details: Day 7; KM 2760 800 μg per mouse Day 0 and Day 4; VP-16 10 mg/kg Day 0 to Day 4; tail vein
Procedure: (§1) CCRF-CEM cells (human T cell leukemia cell line) were suspended in RPMI 1640 medium (Gibco BRL) at a concentration of 2×10^8 cells/mL, and 100 μL of the suspension was grafted into the ventral skin of Balb/c nude mice (Nippon Crea, male). On Day 17 after the cell grafting, a diameter of a tumor was measured with calipers, and a tumor volume was calculated using formula 2 in Example 2.
Individuals having the tumor volume within the range of from 121 to 348 mm^3 (on average 195 mm^3) were selected, and grouped such that the average tumor volume to be almost the same. Each of the following agents A to D was then administered to the mice. Incidentally, the grouping day was defined as Day 0.
(§2) B. Group of administering KM 2760 alone: 800 μg of KM2760 was administered per mouse on Day 0 and Day 4.
C. Group of administering etoposide (hereinafter referred to as VP-16; Lastet injection, Nippon Kayaku Co., Ltd.) alone: 10 mg/kg of VP-16 was administered per mouse for 5 days from Day 0 to Day 4. […]
The experiment was conducted with groups each consisting of five mice. […] On Day 7, the tumor volume was measured. The antitumor effect was evaluated by comparing average values of a tumor volume change (V/V0) on Day 7 when the tumor volume on Day 0 in each group was defined as V0.

CCRF-CEM cells [3] = experiment: antitumor effect of KM 2760 and vincristine in combination, CCRF-CEM cells grafted in nude mouse; type: in vivo, Balb/c nude mouse; details: Day 10; KM 2760 800 μg per mouse Day 0 and Day 4; VCR 0.55 mg/kg Day 0; tail vein
CCRF-CEM cells [4] = experiment: antitumor effect of KM 2760 and cyclophosphamide in combination, CCRF-CEM cells grafted in nude mouse; type: in vivo, Balb/c nude mouse; details: Day 4; KM 2760 800 μg per mouse Day 0 and Day 4; CPA 65 mg/kg Day 0; tail vein
Procedure: CCRF-CEM cells (human T cell leukemia cell line) were suspended in RPMI 1640 medium (Gibco BRL) at a concentration of 2×10^8 cells/mL, and 100 μL of the suspension was grafted intradermally in the right flank of Balb/c nude mice (Nippon Crea, male). On Day 18 after the cell grafting, a diameter of a tumor was measured with calipers, and a tumor volume was calculated using formula 2 in Example 2.
Individuals having the tumor volume within the range of 116 to 349 mm^3 (on average 219 mm^3) were selected, and grouped such that the average tumor volume to be almost the same. Each of the following agent A to D was administered to the mice. Incidentally, the grouping day was defined as Day 0.
The experiment was conducted with groups each consisting of five mice. Each of the agents was diluted with a physiological saline (Otsuka Seiyaku), and the diluent was administered from the tail vein. On Day 4, the tumor volume was measured. The antitumor effect was evaluated by comparing an average values of a tumor volume change (V/V0) on each measurement day when the tumor volume on Day 0 in each group was defined as V0.

CCR4/EL4 cells [5] = test system: CCR4/EL4 cells
Procedure: CCR4/EL4 cells (WO 01/64754) were suspended in RPMI 1640 medium (manufactured by Gibco BRL) at a concentration of 1×10^5 cells/mL, and 200 μL of the suspension was grafted into the peritoneal cavity of C57BL/6 mice (CLEA Japan Inc., male, 8 weeks old). After, mice was grouped into A to D, and each of the agents A to D was administered to each mouse. The day on which the tumor was grafted was defined as Day 0.
B. Group of administering M-CSF alone: 100 μg of M-CSF (Leucoprol, manufactured by Kyowa Hakko Kogyo Co., Ltd.) was intraperitoneally administered per mouse twice a day from Day-3 to Day-1 and once a day on Day 0, seven times in total.
The experiment was conducted with groups each consisting of 8 mice. […] The antitumor effect was evaluated by a ratio of average values of the number of survival days of mice in each group to an average value of the number of survival days of mice in the negative control group (hereinafter referred to as a life prolongation ratio).

CCRF-CEM cells [6] = experiment: antitumor effect of KM 2760 and Methotrexate in combination, CCRF-CEM cells grafted in nude mouse; type: in vivo, Balb/c nude mouse; details: Day 7; KM 2760 800 μg per mouse Day 0 and Day 4; MTX 15 mg/kg Day 0 to Day 4; tail vein
Procedure: as §1, with “(CLEA Japan Inc.” for “(Nippon Crea,”
Individuals having the tumor volume within the range of 121 to 348 mm^3 (on average 195 mm^3) were selected, and grouped such that the average tumor volume to be almost the same. Each of the following agents A to D was administered to the mice. Incidentally, the grouping day was defined as Day 0.
as §2
C. Group of administering Methotrexate (hereinafter referred to as MTX; Methotrexate injection solution, Nippon Weisledary K.K.) alone: 15 mg/kg of MTX was administered per mouse for 5 days from Day 0 to Day 4. […]
The experiment was conducted with groups each consisting of five mice. […] On Day 7, the tumor volume was measured. The antitumor effect was evaluated by comparing average values of a tumor volume change (V/V0) when the tumor volume on Day 0 in each group was defined as V0.

[7] = KM 2760 50 μg i.p. Day 0, M-CSF 100 μg i.p. seven times

B1: KM 2760: anti-CCR4 human chimeric antibody KM 2760 (FERM BP-7054, WO 01/64754) (antibody, V domains shown)
VH: EVQLVESGGDLMKPGGSLKISCAASGFIFSNYGMSWVRQTPDMRLEWVATISSASTYSYYPDSVKGRFTISRDNAENSLYLQMNSLRSEDTGIYYCGRHSDGNFAFGYWGRGTLVTVSA
VL: DVLMTQTPLSLPVSLGDQASISCRSSRNIVHINGDTYLEWYLQRPGQSPKLLIYKVSNRFSGVPDRFSGSGSGTDFTLKISRVEAEDLGVYYCFQGSLLPWTFGGGTRLEIRR
- T/C value (residual amount of tumor cells in the liver, from liver weight ratio) (CCR4/EL4 cells [1]; Day 14, KM 2760 0.5 μg per mouse i.v. Day 1 and Day 5, IFN-α 5×10^4 units per mouse i.v. Day 1 to Day 5): 0.52
- antitumor effect compared to untreated group A (liver weight ratio) (CCR4/EL4 cells [1]; FIG. 7, Day 14): low
- T/C (V/V0 of group divided by V/V0 of negative control group) (CCRF-CEM cells [2]): 0.65
- T/C (V/V0 of group divided by V/V0 of negative control group) (CCRF-CEM cells [3]): 0.43
- T/C (V/V0 of group divided by V/V0 of negative control group) (CCRF-CEM cells [4]): 0.80
- Number of survival days (each mouse) (CCR4/EL4 cells [5]; 8 mice per group, KM 2760 50 μg per mouse i.p. Day 0, M-CSF 100 μg per mouse i.p. seven times Day-3 to Day 0, observation to Day 50): 19 days and 21 days (3×) and 22 days and 24 days and 26 days and 27 days
- Average number of survival days (CCR4/EL4 cells [5]; [7]): 22.9 days
- Life prolongation ratio (average survival days of group / negative control group) (CCR4/EL4 cells [5]; [7]): 1.19
- antitumor effect in comparison with untreated Group A (survival) (CCR4/EL4 cells [5]; Table 7): low
- T/C (V/V0 of group divided by V/V0 of negative control group) (CCRF-CEM cells [6]): 0.65
